Our source for the Kd values is PMC9409550 (PLoS ONE, 2022).

Assay in all cases: flow cytometry on cells
What all share (conditions): one partner purified

Test [1] has as its target SARS-CoV-2 Wuhan-Hu-1 RBD, yeast-displayed (SARS-CoV-2, UniProt P0DTC2 330-530).
Test [2] has as its target RsSHC014 RBD, yeast-displayed (bat sarbecovirus RsSHC014, UniProt U5WLK5 318-517).
The target in test [3] is LYRa11 RBD, yeast-displayed (bat sarbecovirus LYRa11).
The target in test [4] is Rs4231 RBD, yeast-displayed (bat sarbecovirus Rs4231).
For test [5], the target named is Rs4048 RBD, yeast-displayed (bat sarbecovirus Rs4048).
For test [6], the target named is Rs7327 RBD, yeast-displayed (bat sarbecovirus Rs7327).
Test [7] has as its target SARS-CoV-1 (Urbani) RBD, yeast-displayed (SARS-CoV-1 (Urbani)).
Test [8] has as its target RaTG13 RBD, yeast-displayed (bat sarbecovirus RaTG13).

B1: CDY14HL-Fc1 (Fc fusion)
chain: QSTIEEQAKTFLDMFNHKAEDLFYQSSLAAWNYNTNITEENVQNMNNAGDKWSAFLKEQSTFAQMYPLQEIQNPTVKLQLQALQQNGSSVLSEDKSKRLNTILNTMSTIYSTGKVCNPDNPQECLLLEPGLNEIMANSLDYNERLWAWESWRSEVGKQLRPLYEEYVVLKNEMARANHYEDYGDYWRGDYEVNGVDGYDYSRGQLIEDVEHTFEEIKPLYEHLHAYVRAKLMNAYPSYISPIGCLPAHLLGDMWGRFWTNLYSLTVPFGQKPNIDVTDAMVDQAWDAQRIFKEAEKFFVSVGLPNMTQGFWEYSMLTDPGNVQKAVCLPTAWDLGKGDFRILMCTKVTMDDFLTAHHEMGHIQYDMAYAAQPFLLRNGANEGFHEAVGEIMSLSAATPKHLKSIGLLSPDFQEDNETEINFLLKQALTIVGTLPFTYMLEKWRWMVFKGEIPKDQWMKKWWEMKREIVGVVEPVPHDETYCDPASLFHVSNDYSFIRYYTRTLYQFQFQEALCQAAKHEGPLHKCDISNSTEAGQKLFNMLRLGKSEPWTLALENVVGAKNMNVRPLLNYFEPLFTWLKDQNKNSFVGWSTDWSPYAD
Turning to B1, the Kd was 0.14 nM in test [1]; 0.31 nM in test [2]; 0.29 nM in test [3]; 0.3 nM in test [4]; 0.31 nM in test [5]; 0.31 nM in test [6]. Further, the Kd in test [7] worked out at 0.25 nM; in test [8] it was 1.4 nM.

Usually Kd stands for the concentration at which binding is half-saturated. Read a high Kd as a looser complex.
